Measured values taken from PMC2909360 (Molecular microbiology, 2010).

B1: sialostatin L (natural protein)
chain: TGVFGGYSERANHQANPEFLNLAHYATSTWSAQQPGKTHFDTVAEVVKVETQVVAGTNYRLTLKVAESTCELTSTYNKDTCLPKADAAHRTCTTVVFENLQGDKSVSPFECEAA
B2: sialostatin L2 (natural protein)
chain: MELALRGGYRERSNQDDPEYLELAHYATSTWSAQQPGKTHFDTVVEVLKVETQTVAGTNYRLTLKVAESTCELTSTYNKDTCQANANAAQRTCTTVIYRNLQGEKSISSFECAAA

What was measured:
Assay in all cases: cell-based or functional assay
[1] = target: recombinant human cathepsin L (human, UniProt P07711 18-333)
[2] = target: recombinant human cathepsin S (human, UniProt P25774 17-331)
[3] = target: purified bovine cathepsin C (bovine)
[4] = target: T1, purified papain (UniProt P00784 134-345)
T1 sequence (looked up): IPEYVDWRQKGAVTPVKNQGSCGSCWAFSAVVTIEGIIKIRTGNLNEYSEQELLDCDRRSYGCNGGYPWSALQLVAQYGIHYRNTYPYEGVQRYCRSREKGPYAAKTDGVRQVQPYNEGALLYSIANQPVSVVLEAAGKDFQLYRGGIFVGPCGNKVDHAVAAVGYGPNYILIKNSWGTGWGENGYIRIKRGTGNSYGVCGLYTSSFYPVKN

Chain of recombinant human cathepsin L (P07711 18-333): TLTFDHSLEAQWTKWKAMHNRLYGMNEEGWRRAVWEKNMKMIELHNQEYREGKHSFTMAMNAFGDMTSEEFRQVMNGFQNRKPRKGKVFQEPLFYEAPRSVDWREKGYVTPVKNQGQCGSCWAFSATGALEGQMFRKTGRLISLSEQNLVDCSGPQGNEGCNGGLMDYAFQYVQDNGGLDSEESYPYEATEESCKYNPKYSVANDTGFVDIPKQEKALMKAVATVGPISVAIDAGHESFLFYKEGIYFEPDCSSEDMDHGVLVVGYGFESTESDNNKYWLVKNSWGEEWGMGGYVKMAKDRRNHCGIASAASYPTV
Chain of recombinant human cathepsin S (P25774 17-331): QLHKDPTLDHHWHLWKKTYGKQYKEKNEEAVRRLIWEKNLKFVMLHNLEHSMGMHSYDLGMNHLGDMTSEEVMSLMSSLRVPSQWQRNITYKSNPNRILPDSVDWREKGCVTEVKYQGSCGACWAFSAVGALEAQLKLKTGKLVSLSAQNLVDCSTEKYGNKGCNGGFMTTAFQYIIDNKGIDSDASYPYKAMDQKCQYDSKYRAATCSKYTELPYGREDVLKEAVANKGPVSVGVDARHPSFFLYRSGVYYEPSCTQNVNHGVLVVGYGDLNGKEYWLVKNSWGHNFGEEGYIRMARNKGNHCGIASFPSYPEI
Chain of purified bovine cathepsin C (bovine) (Q3ZCJ8 25-463): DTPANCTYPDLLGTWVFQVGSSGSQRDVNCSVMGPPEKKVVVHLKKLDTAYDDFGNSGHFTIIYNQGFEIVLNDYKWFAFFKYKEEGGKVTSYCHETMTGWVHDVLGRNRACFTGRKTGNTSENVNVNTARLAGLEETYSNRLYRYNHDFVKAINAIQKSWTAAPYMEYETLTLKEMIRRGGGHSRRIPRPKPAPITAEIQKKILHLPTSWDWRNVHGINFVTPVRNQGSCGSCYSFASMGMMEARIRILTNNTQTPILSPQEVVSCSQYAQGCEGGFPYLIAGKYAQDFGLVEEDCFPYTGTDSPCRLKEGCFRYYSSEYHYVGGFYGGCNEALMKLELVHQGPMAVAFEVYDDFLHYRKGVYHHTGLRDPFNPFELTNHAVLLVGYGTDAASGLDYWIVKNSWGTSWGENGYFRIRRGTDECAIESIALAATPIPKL

Binder | IC50 of inhibition of enzyme activity (fluorogenic substrate) [1] [nM] | IC50 of inhibition of enzyme activity (fluorogenic substrate) [2] [nM] | IC50 of inhibition of enzyme activity (fluorogenic substrate) [3] [nM] | IC50 of inhibition of enzyme activity (fluorogenic substrate) [4] [nM]
B1 | 1.6 | 0.2 | 160 | 0.5
B2 | 1.1 | 114 | 4720 | 0.4
